Source: PMC8230603, “Rad52 Oligomeric N-Terminal Domain Stabilizes Rad51 Nucleoprotein Filaments and Contributes to Their Protection against Srs2”

Molecular target: Rad52-FLAG (Saccharomyces cerevisiae, UniProt P06778 1-471)
Assay: EMSA; 5 mM MgCl2; 10 mM Tris-HCl pH 8, 5 mM MgCl2, 100 mM NaCl, 37 °C, 10 min; 0.27 µM Cy5-DNA (nt per Fig 6 legend); 8% native PAGE
Details: protein: recombinant; tags: FLAG; chain copies: 10; label: 5'-Cy5 on strand 1; blunt

Chain of Rad52-FLAG (P06778 whole entry): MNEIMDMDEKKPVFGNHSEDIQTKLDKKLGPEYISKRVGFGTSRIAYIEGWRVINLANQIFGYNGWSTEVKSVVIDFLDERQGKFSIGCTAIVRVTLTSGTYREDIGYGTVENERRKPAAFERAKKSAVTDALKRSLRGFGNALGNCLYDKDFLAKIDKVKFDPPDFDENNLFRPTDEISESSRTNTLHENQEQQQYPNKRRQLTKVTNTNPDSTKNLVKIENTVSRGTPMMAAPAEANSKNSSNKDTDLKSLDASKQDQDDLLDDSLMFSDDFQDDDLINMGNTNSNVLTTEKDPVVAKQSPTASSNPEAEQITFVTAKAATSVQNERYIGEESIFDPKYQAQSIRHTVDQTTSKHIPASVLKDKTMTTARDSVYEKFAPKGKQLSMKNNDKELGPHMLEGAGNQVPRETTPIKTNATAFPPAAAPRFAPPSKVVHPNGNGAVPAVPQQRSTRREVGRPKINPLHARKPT

B1: XV2 dsDNA (dsDNA)
DNA 1: TGGGTGAACCTGCAGGTGGGCAAAGATGTCCTAGCAATGTAATCGTCAAGCTTTATGCCGTT
DNA 2: AACGGCATAAAGCTTGACGATTACATTGCTAGGACATCTTTGCCCACCTGCAGGTTCACCCA
binding result: binds
